In the nanobody polyreactivity screen of Harvey et al. (2022):

Assay: yeast display, Sf9 membrane polyspecificity reagent, FACS + sequencing; frameworks hold sequencing errors
Procedure, shortened: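 Using colony PCR, genes from sorted yeast display clones were amplified, then sequenced on MiSeq at 2 × 250 and filtered by CDR length. The clones had been stained with 10% biotinylated, detergent-solubilized Sf9 membrane reagent for 1 hour at 4 °C and sorted by FACS into low and high (top ~1%) gates on anti-HA and streptavidin fluorescence. Polyreactivity labels come from the gate of origin.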

Row | Sequence | polyreactivity (PSR sort gate)
1 | QVQIVESGGVLVQAGGSIRLSCDASGSLFTIYAMGCYRQAPGKERELVAAITWSGGSTYYADSVKGRYTISRDNAKNTVNLQMNSLKPEDTAVYYCAADAYTGDIPYWWPWNNEYDYWGQGTQVTLSS | low polyreactivity
2 | QVQIVESGRGLVQAGGSLRLSCAPSGFNIPTNGMGWYRQATGKEREFVASITWRGGGTYYAESVKGRFTISRDNAKNTVFLQMNSLKPEDTAVYYCAAGRSWSSYWKYDYWGLGTQVTVSS | low polyreactivity
3 | QVQIVESGRGLVQAGGSLRVSCAASGRTFTYNAMGWYRQAPGKERELVAAINGDGGSTYYADSVKVRFTISRDNAKNTVYLQMNSLKPEDTAVYYCNRPRIYRYGYWGQGTQVTVSS | high polyreactivity
4 | QVQIVESRGGLVQAGGSLRLSCSASGRTFTYYAMGWYRQAPGKERELVASITSGGSTYADSVKGRFTISRDNAMNTVYLQMNSLKPEDTAVYYCAARAWGYRYKYYWGQGTLVTVSS | high polyreactivity
5 | QVQIVESVGCLVQARGSLRLSSAASGFILVINAMGWYRQAPGKERELVAAINGGDITNYADSVKGRFTFSRDNAKNNVYLQMNSLKPEDTAVYYCSADGEDSLWTGYDYDYWGLGTQVTVSS | low polyreactivity
6 | QVQIVESVGGLVQAGGSLRLSCAASGSTFSGYAKGWYRQAPGKERELVAAISWRGVRTYYADSVKGRFTISRDNAKNTVYLQMNSLKPEDTAVYYCAAVRYIPKEFYWGQGTQVTVSS | high polyreactivity
7 | QVQIVESWGGLVQAGGSLRVSCATSGGIFRFNAMGSYRHAPGKERELVAAITSSVGSTYYADSVKGRFTFSRDNAKNTVDLQLNSLKPEDTAVDDCAAVITRVAIVFSTEYDYWGQGTQVTVSS | low polyreactivity
8 | QVQIVETGGVLVQAGGSLRLSFADAGLTIYIYAMGWYRQAPGKETELFPAISWIGDSTYYADSVKGLFTISRDNAKNTVYLQLNSLKPEDTAVYYCAADSWRYVAEGLWREYDYWGQGTQVTVSS | low polyreactivity
9 | QVQLAESGGGLVQAGGSLRLSCAASGIIFVYNAMGWYIKAPGKERELVAVISFIGDSTYYADSVKGRFTISRDNAKNTVYLQMNSLKPEDTAVYYCAADYYMPYWFFVGYDYWGQGTQVTVSS | low polyreactivity
10 | QVQLAESGGGLVQAGGSLRLSCAASGRTFSQYGMGWYRQAPGKERELVARIRRSGGSTYYADSVKGRFTISRDNAKNTVYLQMNSLKPEDTAVYYCAARYYWFGQYQYNYWGQGTQVTVSS | high polyreactivity
11 | QVQLAESGGGLVQAGGSLRLSCAASGRTFSQYGMGWYRQAPGKERELVARIRRSGGSTYYADSVKGRFTISRDNAKNTVYLQMNSLKPEDTAVYYCNADGQPYTRYGYWGQGTRVTVSS | high polyreactivity
12 | QVQLAESGGGLVQAGGSLRLSCGASGSTFVAYALGWYRQAPGKEREFVAAISRSGGSTHYADSVKGRFTISRDNAKNTVYLQMNRLNPEDTAVYYCAARVYGYGGRTYEYWGQGTQVTVSS | high polyreactivity
13 | QVQLDESGGGLVQAGGSHRLSCAASGYIFGYYAMGWSRQAPGKERELVAAISKSGTDTYYADSVKGRFTISRDYAKNTVFLQMNSLKPEDTAVYYCNALLRGYSYGYDYWGQGTQVTVSS | high polyreactivity
14 | QVQLEDSGGGLVQAGGSLRLICAASGSILNYKAMGWYRHAPGKERELVAGIRSSGGSTYYADSVKGRFTISRDNAKNTVYLKMNSLKPEDTAVYDWAKRTYWRRGWGFDFWGQGTQVTVSS | high polyreactivity
15 | QVQLEDSGGGLVQAGGSLRLSCAASGFIFRGYGMGWYRQAPGKERELLASITTGGRTNYADSVKGRFTISRDNAKNTVYLQMNCLKPEDTAVYYCAATYYLRLRRPYWQGFNYWGQGTQVTVSS | high polyreactivity
16 | QVQLEDSGGGLVQAGGSLRLSCAASGRTFVFKAMGWYRPAPGKERELVAAITISGGSTYYADSVKGRFTISRDNAKNTVYLQMNSLKPEDTAVYSCNADSKIEVFSYIYDYWGQGTQVTVSS | high polyreactivity
17 | QVQLEDSGGGLVQAGGSLRLSCAASGSIFRRNFMGWNRQAPGKERELVAAISWSGDRTYYADSVKGRFTISRDNAKNTVYLQMNSLKPEDTAVYYCNAVYWPYRYDYWGQGTQVTVSS | high polyreactivity
18 | QVQLEDSGGGVVQAGGSLRLSCAASGSIYYPYAMGWNRQAPGKERELVARITSGGSTHYADSVKGRFTISRDNAKNTVYLQMNSLKPEETAVYYCNADYWFVESDYWGKGTQVTVSS | low polyreactivity
19 | QVQLEESAGGIVQAGGSLRLSCAGSGSTVSVYAMGWYRQAPGKEWELVARIRWSSGITYYADSVNGRFTISRDNAKNTVYLQLNSVKPEDTAVYYCNAQYRRAYLWFLYDYWGQGTQVTVSS | high polyreactivity
20 | QVQLEESAGGLVQAGGSLRLSCAASGSIFFFYAKGRYREAPGKERELVAAITGSGGSTYYADSVKGRFTISRVNAKNTVYLQMNSLKPEDTAVYDCAFRTSRQVYSYAGYESWGQGTHVTVSS | low polyreactivity
21 | QVQLEESCGGLVQAGGRLRLSCAASGSIFRFNVMGWYRHAPGKERDLVAAITRGDSTNYADSVKGRFTISRDNAKITVYLQMNILIQDDSAVYYCAAGYYYYLRDHDYWGQGTQVTVSS | low polyreactivity
22 | QVQLEESGAGLLQAGGSIRLSCAASGRTFWYYTMGWYRQAPGKEREVVAAISSGGRTNYADSVKGRFTISRDNAKNTVYLQMNSLKPEDTAVYDCAALYAKYYYRYDYWGQGTQVTVSS | high polyreactivity

Row | Sequence | polyreactivity (PSR sort gate)
23 | QVQLEESGGCLVQAGGRIRLSCAASGLTFHRYAMGWYRQAPGKERELVAAINYSGGRTYYADSVKGRFTISRDNATNNVYLQMNSLKPEDTAVYYCAAPSASGYYWGQGNQVTVSS | high polyreactivity
24 | QVQLEESGGCLVQAGGRIRLSCAASGSIFGYYAMGWYRQAPGKERELVADISYTGVSTYYADSVKGRFTISRDNAKNTVYLQMNSLKPEDTAVYYCAADWVYPDYSWYSYTDFDYWGQGTQVTVSS | low polyreactivity
25 | QVQLEESGGCLVQAGGSLRLSCAASGSIFWYNAMGRSRQAPGKERELVAAISYSGDRTYYADSVKGRFTISRDNAKNTGYLLMNSLKPEVTAVYYCAKAGTCFYNSWWEDSWGQGTQVTLSS | low polyreactivity
26 | QVQLEESGGGFVQAGGSLRLSCAASGFIFRRYAMGWYRQAPGKERELVAAISWRSGSTYYADSVKGRFTISRDNAKNTVYSPMKCLKPEDTAVYYCAAKDQATYQLYYWGQGTQVTVSS | high polyreactivity
27 | QVQLEESGGGFVQAGGSLRLSCAPSGTTFKSNAMGWYRQAPGKERELVAAINSGTSTYYADSVKGRFTISRDNAKNTVYLQMNSLKPEDTAVYYCSADGIWGEYYYSELGDYDYWGLGTQVTVSS | low polyreactivity
28 | QVQLEESGGGIVQAGGSLRLSCAASGITFYWYAMGWYRQAPGKERELVASITGNGGGTSYADSVKGRFTISRDNAKNTVYLQMNSLKPEDTAVYYCNTSVGVKDYVSWGQGTQVTLSS | low polyreactivity
29 | QVQLEESGGGLDQAGGSLRLICAASGSIFPSYAMGWYRQAPGKERELVATIGRGGTTNYSDSVKGRFTISRDNAKITVYLLMNSLKPEDTAVYYCNADRIWRYKYGYDYWRQGTQVTVSS | high polyreactivity
30 | QVQLEESGGGLDQAGGSLRLSCAASGRIFVFYAMGWYRQAPGKERELVAAITASSTRTYFADSVKGRFTISRDNAKNTVYLQMNSLKPEDTAVYYCAADRYYWGQGTQVTVSS | low polyreactivity
31 | QVQLEESGGGLFQAGGSLRLSCAASGSTFVSNAMGWYRQAPGKDRELVAAISSSGGRTSYADSVKGRFTISRDNAKNTVYLQMNSLKPEDTAVYYCNRVSPGPDADLEFDYWGQGTQVTVSS | low polyreactivity
32 | QVQLEESGGGLGQAGGSLRLSCAASGRIFRDYAMGWSRQAPGKERELVAAITSGGTTYADSVKGRVTISRDNAKNTVYLQLNSLKPEDTAVYYCNVAWIWGKFDYWGQGTQVTVSS | high polyreactivity
33 | QVQLEESGGGLGQAGGSLRLTCAASGSIFRQYAMGWYRQAPGKERDLVATISRSGGSTYYADSVKGRFTISRDNAKNTVYLQLNSLKPEDTAVYYCAASRYNKSYREWWVGSWGQGTQVTVSS | high polyreactivity
34 | QVQLEESGGGLLQAGGSLRLSCAASGSTFLRNAKGWYRQAPGKERELVATITISGGSTHYADSVKGRFTISRDNAKNTVYLPMNSLKPEDTAVYYCGTPRYPSYDYWGQGTQVTVSS | low polyreactivity
35 | QVQLEESGGGLVKARGSLRITCAASGSTFDYYTMGWYRQAPGKERELFAAINSSGGRTYYADSVKGRFTISRDTAKNTVYLQMNSLIPEDTAVYDCAAVTLCLGRYPYTYTSRYEYWGLGTQVTVSS | high polyreactivity
36 | QVQLEESGGGLVQAGASLRLSCAASGRTFPRYAMGWSRQAPGKERELVAAITSSGGSTNYADSVKGRFTISRENATNSVYLQMYSLKPEDTAVYYCNARFPTQYILWSSSPYGYWGQGTQVTVSS | low polyreactivity
37 | QVQLEESGGGLVQAGCSLRLSCAASGRIFHFYAIGRYRQAPGKERELVAVINGGGSTYYADSVKGRFTISRDNAKNTVYLQMNSLKPEVTAVYYCAADVYLSRYEKYGYWGQGTQVTVSS | high polyreactivity
38 | QVQLEESGGGLVQAGGIRRLSCAASGRIFPYYAMGWYRLAPGKERELVAAISLSGGSTYYADSVKGRFTISRDTAKMSGYLQMTSLKPEDTAVYYGNAVASTSGYYWYPGLGYDYCGQGTQVTVSS | low polyreactivity
39 | QVQLEESGGGLVQAGGRLRLSCAASGGNFNYYPMGWYREAPGKERELVAAITRGGSTYYADSVKGRFTISRDNAKNTVYLQMNSLKPEDTAVYYCAAGWRRYDKSPLEGSWGQGTQVTLSS | high polyreactivity
40 | QVQLEESGGGLVQAGGRLRLSCAASGIIFGYYAIGWYRQAPGKERELVAAISSGGTTSYADSVKGRFTISRDNAKNTVYLQMNSLKPEDTSVYYCSARDWYDGFYYWGQGTQVTVSS | low polyreactivity
41 | QVQLEESGGGLVQAGGRLRLSCAASGNTFQVYAMGWSRQASGTERELVATITSGGSTNYADSVKGRFTISRDNAKNTVYLQMNSQIPDDTAVYYCARRAVYSKRRYDYWGQGTQVTVSS | low polyreactivity
42 | QVQLEESGGGLVQAGGRLRLSCAASGRTFGANAMGWYRQAPGKERELVATIRRGGSTYYADSVKGRFTISRDNAKNTFYLQMHSLKPEDTAVYYCATQYHSYAKEYDYWGQGTQVTVSS | low polyreactivity
43 | QVQLEESGGGLVQAGGRLRLSCAASGSTCGTNVMGGARQAPGKERELVAAFSNGGSTNYADSVKGRFTISRDNAKITDYLQMNSLKPEDTAVYYCEFDYWGQGTQVTVSS | low polyreactivity
